According to patent US20250002599A1 (NOVAROCK BIOTHERAPEUTICS, published 2025):
Like-named read-outs stand apart in the source and are kept apart here. One block for each binder: values may come before it.

Key:
[1] = target: T1, human CD137 expressed on the cell surface of HEK293T cells (human, UniProt Q07011 24-255); assay: immunofluorescence imaging on HEK293T cells expressing human CD137
T1 construct: Stably or transiently transfected HEK293T cells; also on HEK293T and Jurkat T NFκB reporter cells; also called human CD137 (WT); 4-1BB

[2] = target: T2, cynomolgus CD137 expressed on the cell surface of HEK293T cells (cynomolgus, UniProt Q07011 24-255 (human entry)); assay: immunofluorescence imaging on HEK293T cells expressing cynomolgus CD137
T2 construct: also called cyno CD137
T2 chain: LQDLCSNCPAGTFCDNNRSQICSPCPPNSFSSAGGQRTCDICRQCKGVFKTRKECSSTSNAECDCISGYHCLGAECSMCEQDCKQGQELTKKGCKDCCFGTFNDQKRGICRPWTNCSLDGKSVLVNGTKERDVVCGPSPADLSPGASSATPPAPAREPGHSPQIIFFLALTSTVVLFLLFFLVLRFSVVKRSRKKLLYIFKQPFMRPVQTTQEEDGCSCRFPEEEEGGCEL

[3] = target: T3, mouse CD137 expressed on the cell surface of HEK293T cells (mouse, UniProt P20334 24-256); assay: immunofluorescence imaging binding assay on mouse CD137-expressing HEK293T cells
T3 construct: whole, on cells; also called murine CD137; mouse 4-1BB

[4] = target: T4, human CD137 (Sino Biological, cat #10041-H08H) (human, UniProt Q07011 24-186); assay: SPR (Biacore3000), antibody captured by anti-human IgG on CM5, CD137 as analyte, 1:1 binding with mass transfer
T4 construct: Bought protein used as the analyte in SPR; also called CD137 antigen in Biacore

[5] = target: T1, human CD137 expressed on the cell …; assay: immunofluorescence imaging binding assay on human CD137-expressing HEK293T cells
[6] = target: T3, mouse CD137 expressed on the cell …; assay: immunofluorescence imaging binding assay on mouse CD137-expressing HEK293T cells; remark: listed apart in the source
[7] = target: T5, human PD-L1 expressed on the cell surface (HEK293T-PD-L1 cells; Promega artificial APC CHO-K1 cells) (human, UniProt Q9NZQ7 19-290); assay: cell-based or functional assay
[8] = target: T6, human recombinant PD-L1 protein (Acro Biosystems, cat #: PD1-H5229) (human, UniProt Q9NZQ7 19-238); assay: ELISA, PD-L1 protein coated on the plate, OD 405
T6 construct: Bought protein; also called human PD-L1; recombinant human PD-L1

[9] = target: T7, cynomolgus PD-L1 protein (Acro Biosystems, cat #: PD1-C52H4) (cynomolgus, UniProt Q9NZQ7 19-238 (human entry)); assay: ELISA, PD-L1 protein coated on the plate, OD 405
T7 construct: Bought protein; also called cyno PD-L1

[10] = target: T8, mouse PD-L1 protein (Acro Biosystems, cat #: PD1-M5220) (mouse, UniProt Q9EP73 19-238); assay: ELISA, PD-L1 protein coated on the plate, OD 405
T8 construct: Bought protein; also called murine PD-L1

[11] = target: T5, human PD-L1 expressed on the cell …; assay: immunofluorescence imaging on HEK293T-PD-L1 cells
[12] = target: T6, human recombinant PD-L1 protein (Acro …); assay: ELISA, PD-L1 protein coated on the plate, OD 405; remark: listed apart in the source
[13] = target: T7, cynomolgus PD-L1 protein (Acro …); assay: ELISA, PD-L1 protein coated on the plate, OD 405; remark: listed apart in the source
[14] = target: T8, mouse PD-L1 protein (Acro Biosystems, …); assay: ELISA, PD-L1 protein coated on the plate, OD 405; remark: listed apart in the source
[15] = target: T6, human recombinant PD-L1 protein (Acro …); assay: SPR (Biacore3000), antibody captured by anti-human IgG on CM5, PD-L1 as analyte, 1:1 binding with mass transfer
[16] = target: T3, mouse CD137 expressed on the cell …; assay: immunofluorescence imaging binding assay on mouse CD137-expressing HEK293T cells; remark: listed apart in the source

T5 sequence (Q9NZQ7 19-290 limits assumed): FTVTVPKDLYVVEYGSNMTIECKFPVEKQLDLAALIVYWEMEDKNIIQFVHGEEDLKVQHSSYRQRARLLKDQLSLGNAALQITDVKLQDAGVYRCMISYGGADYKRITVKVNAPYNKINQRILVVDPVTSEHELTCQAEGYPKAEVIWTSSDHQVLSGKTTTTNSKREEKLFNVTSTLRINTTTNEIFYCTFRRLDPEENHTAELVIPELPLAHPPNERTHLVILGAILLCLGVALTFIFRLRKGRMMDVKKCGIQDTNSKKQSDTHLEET
T6 sequence (Q9NZQ7 19-238 limits assumed): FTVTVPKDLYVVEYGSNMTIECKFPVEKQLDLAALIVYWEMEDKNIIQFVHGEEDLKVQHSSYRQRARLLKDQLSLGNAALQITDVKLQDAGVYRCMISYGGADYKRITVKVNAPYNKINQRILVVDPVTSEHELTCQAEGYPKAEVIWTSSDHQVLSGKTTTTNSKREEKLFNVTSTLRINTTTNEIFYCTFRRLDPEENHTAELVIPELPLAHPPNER
T4 sequence (Q07011 24-186 limits assumed): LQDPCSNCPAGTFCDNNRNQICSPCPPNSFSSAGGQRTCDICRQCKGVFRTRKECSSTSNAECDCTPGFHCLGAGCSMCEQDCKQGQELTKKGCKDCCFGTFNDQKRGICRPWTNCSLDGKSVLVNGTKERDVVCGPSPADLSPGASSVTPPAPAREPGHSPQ
T3 sequence (P20334 24-256): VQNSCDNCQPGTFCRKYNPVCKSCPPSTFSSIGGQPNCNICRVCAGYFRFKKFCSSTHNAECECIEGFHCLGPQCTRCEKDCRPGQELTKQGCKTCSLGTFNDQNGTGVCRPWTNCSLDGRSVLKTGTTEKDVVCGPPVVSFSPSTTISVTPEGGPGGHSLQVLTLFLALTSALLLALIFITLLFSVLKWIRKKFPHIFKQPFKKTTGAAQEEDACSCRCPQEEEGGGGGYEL
T7 sequence (Q9NZQ7 other isoform, or with tags, fused parts or gaps limits assumed): as the sequence (Q9NZQ7 19-238 limits assumed) above, with A33T, A34S, S62N, R68Q, Q82R, F173L, T185A, T192I, H215L counted along it
T8 sequence (Q9EP73 19-238 limits assumed): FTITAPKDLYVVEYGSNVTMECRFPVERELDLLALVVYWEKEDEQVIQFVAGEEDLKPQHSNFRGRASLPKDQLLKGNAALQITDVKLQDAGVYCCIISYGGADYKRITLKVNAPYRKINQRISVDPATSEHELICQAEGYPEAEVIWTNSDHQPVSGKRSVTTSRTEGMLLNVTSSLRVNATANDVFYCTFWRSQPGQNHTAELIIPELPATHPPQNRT

EC50 [1]: 0.29 nM
EC50 [2]: 0.22 nM
binding result [3]: no binding
Kd [4]: 7.18 nM
koff [4]: 0.0219 s⁻¹
kon [4]: 3.05e+06 M⁻¹ s⁻¹
B1: 1923Ab4 (antibody, V domains shown)
VH: QVQLVESGGGVVQPGRSLRLSCAASGFTFSNYGMHWVRQAPGKGLEWVAIIWYDGINKYYADSVKGRFTISRDNSKNTLYLQMNSLKAEDTAVYYCARDQDYDILTGYYKEDYFDFWGQGTLVTVSS
VL: SYELTQPPSVSVSPGQTARITCSGDALPKKYAYWYQQKSGQAPVLVIYEDSKRPSGIPERFSGSSSGTMATLTISGAQVEDEADYYCYSTDSSGNRVFGGGTKLTVL
notes: also called CD137 monospecific 1923Ab4; anti-CD137 1923Ab4

EC50 [1]: 10.5 nM
EC50 [2]: 4.23 nM
EC50 [5]: 11 nM
binding result [6]: no binding
B2: 1923Ab6 (antibody, human IgG1, V domains shown)
VH: EVHLLESGGGLVQPGGSLRLSCAASGFTFSSYAMGWVRQAPGKGLEWVSIIGGGGGSTYYADSVKGRFTISRDNSKNTLYLQMNSLRAEDTAVYYCAKVGYSGTYGGWFDPWGQGTLVTVSS
VL: DIQMTQSPSSLSASIGDRVAITCRASQGISNYLAWFQQKPGKAPKSLIYAASSLQSGVPSKFSGSGSGTDFTLTISSLQPEDFATYYCQQYNSYPLTFGGGTKVEIK
notes: also called CD137 monospecific 1923Ab6

EC50 [1]: 1.62 nM
EC50 [2]: 2.77 nM
EC50 [5]: 1.6 nM
binding result [16]: no binding
B5: 1923Ab5 (antibody, human IgG1, V domains shown)
VH: QVQLVESGGGVVQPGRSLRLSCAASGFTFSSYGMHWVRQAPGKGLEWVAVIWYDGSNEYYADSVKGRFTISRDNSKNTLYLQMNSLRAEDTAVYYCARERWQWLVLFDYWGQGTLVTVSS
VL: EIVLTQSPATLSLSPGERATLSCRASQTITSSYLSWYQQKPGQAPRLLIYGASTRATGIPARFSGSGSGTDFTLTISSLQPEDFALYFCQQDFNLPYTFGQGTKLEIK
notes: also called CD137 monospecific 1923Ab5

Further lines, the binder ahead of its results:

B3: 1923Ab2 (antibody, V domains shown)
VH: QVQLVESGGGVVQPGRSLRLSCAASGFTFRNYGMHWVRQAPGKGLEWVAVIWFDGINKYYADSVKGRFTISRDNSENTLYLQMNSLRAEDTAVYYCARDRSSSPFDFWGQGTLVTVSS
VL: EIVMTQSPATLSLSPGERATLSCRASQNFSNNYLSWYQQTPGQAPRLLIYGASTRATGIPARFSGSGSGTDFTLTISSLQPEDFAVYYCQQDYNLFTFGPGTKVDIK
notes: Fully human variable regions from Trianni mice; Constant region as tested not clear: hybridoma-derived (mouse constant) or recombinant human IgG1 / IgG1 variant with human kappa; also called PD-L1 monospecific 1923Ab2; anti-PD-L1 antibody 1923Ab2
IC50, PD-1/PD-L1 blockade luciferase reporter assay [7]: 0.9 nM
EC50 [8]: 0.09 nM
EC50 [9]: 0.08 nM
binding result [10]: no binding

B4: 1923Ab3 (antibody, V domains shown)
VH: QVQLVQSGAEVKKPGASVKVSCKASGYTFTSYDINWVRQATGQGLEWMGWMNPNSGITGYAQRFQGRVTMTRDTSISTAYMELSSLRSEDTAVYYCARHRWGKGYLDLWGRGTLVTVSS
VL: EIVMAQSPATLSLSPGERATLSCRASQSVSSSYLSWFQQKPGQAPRLLIYGASTRATGIPARFGGSGSGTDFTLTISSLQPEDFAVYYCQQDYNLPYTFGQGTKLEIK
notes: also called PD-L1 monospecific 1923Ab3; anti-PD-L1 antibody 1923Ab3
IC50, PD-1/PD-L1 blockade luciferase reporter assay [7]: 0.43 nM
EC50 [11]: 0.18 nM
EC50 [12]: 0.08 nM
EC50 [13]: 0.07 nM
binding result [14]: no binding
Kd [15]: 2.95 nM
koff [15]: 0.0024 s⁻¹
kon [15]: 814000 M⁻¹ s⁻¹
